Measurements reported in patent US20240124563A1.

Experiments:
[1] = molecular target: human MSLN protein endogenously expressed on tumor cells (Hela, OVCAR3) (human) (UniProt Q13421); experiment: FACS, OVCAR3 cells, antibody 2 nM
[2] = molecular target: human MSLN full-length protein on transfected cells (CHO-K1-hMSLN clones 2C8, 2D11, 2C5; HEK293T-hMSLN clones B8, 2A4, 2A7) (human) (UniProt Q13421); experiment: FACS, CHO-K1-hMSLN-2C8 cells, antibody 0.8 nM
[3] = molecular target: human MSLN full-length protein on transfected cells (CHO-K1-hMSLN clones 2C8, 2D11, 2C5; HEK293T-hMSLN clones B8, 2A4, 2A7) (human) (UniProt Q13421); experiment: FACS, CHO-K1-hMSLN-2C8 cells, antibody 0.032 nM
[4] = molecular target: human MSLN full-length protein, recombinant, on CHO-K1 or HEK293T cells (human) (UniProt Q13421); experiment: competitive FACS on CHO-K1-human MSLN-2C8 cells vs Biotin-Tab131; competitor at 1.6 nM
[5] = molecular target: human MSLN protein endogenously expressed on tumor cells (Hela, OVCAR3) (human) (UniProt Q13421); experiment: FACS, OVCAR3 cells, antibody 0.2 nM
[6] = molecular target: human MSLN protein endogenously expressed on tumor cells (Hela, OVCAR3) (human) (UniProt Q13421); experiment: FACS, OVCAR3 cells
[7] = molecular target: human MSLN full-length protein, recombinant, on CHO-K1 or HEK293T cells (human) (UniProt Q13421); experiment: competitive FACS on CHO-K1-human MSLN-2C8 cells vs Biotin-Tab142; competitor at 0.064 nM
[8] = molecular target: monkey MSLN full-length protein on HEK293T cells (monkey); experiment: FACS, HEK293T-monkey-MSLN cells, antibody 0.16 nM
[9] = molecular target: chimeric human MSLN-R3 / chicken MSLN-R1-2 protein on HEK293T cells (clone A5) (chicken; human); experiment: FACS, HEK293T-chickR1-2/hR3-A5 cells
[10] = molecular target: monkey MSLN full-length protein on HEK293T cells (monkey); experiment: FACS, HEK293T-monkey-MSLN cells, antibody 0.8 nM
[11] = molecular target: human MSLN protein endogenously expressed on tumor cells (Hela, OVCAR3) (human) (UniProt Q13421); experiment: FACS, OVCAR3 cells, antibody 0.8 nM
[12] = molecular target: human MSLN protein endogenously expressed on tumor cells (Hela, OVCAR3) (human) (UniProt Q13421); experiment: FACS, OVCAR3 cells, antibody 0.00128 nM
[13] = molecular target: human MSLN full-length protein, recombinant, on CHO-K1 or HEK293T cells (human) (UniProt Q13421); experiment: competitive FACS on CHO-K1-human MSLN-2C8 cells vs Biotin-Tab142; competitor at 8 nM
[14] = molecular target: human MSLN full-length protein, recombinant, on CHO-K1 or HEK293T cells (human) (UniProt Q13421); experiment: competitive FACS on CHO-K1-human MSLN-2C8 cells vs Biotin-Tab142; competitor at 0.16 nM
[15] = molecular target: human MSLN full-length protein on transfected cells (CHO-K1-hMSLN clones 2C8, 2D11, 2C5; HEK293T-hMSLN clones B8, 2A4, 2A7) (human) (UniProt Q13421); experiment: FACS, CHO-K1-hMSLN-2C8 cells, antibody 20 nM
[16] = molecular target: human MSLN full-length protein, recombinant, on CHO-K1 or HEK293T cells (human) (UniProt Q13421); experiment: competitive FACS on CHO-K1-human MSLN-2C8 cells vs Biotin-Tab131; competitor at 40 nM
[17] = molecular target: human MSLN full-length protein, recombinant, on CHO-K1 or HEK293T cells (human) (UniProt Q13421); experiment: competitive FACS on CHO-K1-human MSLN-2C8 cells vs Biotin-Tab142; competitor at 0.32 nM
[18] = molecular target: human MSLN full-length protein, recombinant, on CHO-K1 or HEK293T cells (human) (UniProt Q13421); experiment: competitive FACS on CHO-K1-human MSLN-2C8 cells vs Biotin-Tab142; competitor at 4 nM
[19] = molecular target: human MSLN full-length protein, recombinant, on CHO-K1 or HEK293T cells (human) (UniProt Q13421); experiment: FACS, HEK293T-hMSLN-B8 cells, antibody 0.2 nM
[20] = molecular target: human MSLN full-length protein, recombinant, on CHO-K1 or HEK293T cells (human) (UniProt Q13421); experiment: FACS, HEK293T-hMSLN-B8 cells, antibody 20 nM
[21] = molecular target: human MSLN full-length protein, recombinant, on CHO-K1 or HEK293T cells (human) (UniProt Q13421); experiment: competitive FACS on CHO-K1-human MSLN-2C8 cells vs Biotin-Tab142; competitor at 0.0064 nM
[22] = molecular target: human MSLN full-length protein, recombinant, on CHO-K1 or HEK293T cells (human) (UniProt Q13421); experiment: competitive FACS on CHO-K1-human MSLN-2C8 cells vs Biotin-Tab131; competitor at 8 nM
[23] = molecular target: human MSLN protein endogenously expressed on tumor cells (Hela, OVCAR3) (human) (UniProt Q13421); experiment: FACS, Hela cells
[24] = molecular target: human MSLN full-length protein on transfected cells (CHO-K1-hMSLN clones 2C8, 2D11, 2C5; HEK293T-hMSLN clones B8, 2A4, 2A7) (human) (UniProt Q13421); experiment: FACS, CHO-K1-hMSLN-2C8 cells, antibody 0.16 nM
[25] = molecular target: human MSLN protein endogenously expressed on tumor cells (Hela, OVCAR3) (human) (UniProt Q13421); experiment: FACS, OVCAR3 cells, antibody 4 nM
[26] = molecular target: monkey MSLN full-length protein on HEK293T cells (monkey); experiment: FACS, HEK293T-monkey-MSLN cells, antibody 4 nM
[27] = molecular target: human MSLN full-length protein, recombinant, on CHO-K1 or HEK293T cells (human) (UniProt Q13421); experiment: competitive FACS on CHO-K1-human MSLN-2C8 cells vs Biotin-Tab142; competitor at 40 nM

human MSLN protein endogenously expressed on tumor cells (Hela, OVCAR3) (human), sequence (Q13421 other isoform, or with tags, fused parts or gaps): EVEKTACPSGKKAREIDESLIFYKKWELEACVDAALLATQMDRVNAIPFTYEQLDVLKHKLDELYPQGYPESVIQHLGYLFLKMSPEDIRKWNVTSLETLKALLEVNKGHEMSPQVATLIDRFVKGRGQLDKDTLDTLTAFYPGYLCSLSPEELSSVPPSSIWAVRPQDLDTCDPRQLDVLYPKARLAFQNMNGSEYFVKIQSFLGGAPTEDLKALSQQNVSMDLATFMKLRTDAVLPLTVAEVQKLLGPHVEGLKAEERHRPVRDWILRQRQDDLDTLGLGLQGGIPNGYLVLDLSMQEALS
human MSLN full-length protein on transfected cells (CHO-K1-hMSLN clones 2C8, 2D11, 2C5; HEK293T-hMSLN clones B8, 2A4, 2A7) (human), sequence (Q13421 other isoform, or with tags, fused parts or gaps limits assumed): as the sequence (Q13421 other isoform, or with tags, fused parts or gaps) above, with R14P counted along it
human MSLN full-length protein, recombinant, on CHO-K1 or HEK293T cells (human), sequence (Q13421 other isoform, or with tags, fused parts or gaps limits assumed): as the sequence (Q13421 other isoform, or with tags, fused parts or gaps) above, with R14P counted along it
chimeric human MSLN-R3 / chicken MSLN-R1-2 protein on HEK293T cells (clone A5) (chicken; human), sequence (Q13421 495-614, change not shown): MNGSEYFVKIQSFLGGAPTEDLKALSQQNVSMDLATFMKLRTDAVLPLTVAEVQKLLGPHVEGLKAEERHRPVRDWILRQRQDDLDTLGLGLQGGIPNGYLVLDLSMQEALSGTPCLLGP

- MFI [1]: 255
- FACS signal (MFI) [2]: 80
- FACS signal (MFI) [3]: 59
- MFI of Biotin-Tab131 [4]: 12600
- MFI [5]: 106
- Max MFI [6]: 147
- MFI of Biotin-Tab142 [7]: 23600
- FACS signal (MFI) [8]: 85
- Max MFI [9]: 115
- FACS signal (MFI) [10]: 87
- FACS signal (MFI) [11]: 76
- FACS signal (MFI) [12]: 75
- MFI of Biotin-Tab142 [13]: 23000
- MFI of Biotin-Tab142 [14]: 43600
- FACS signal (MFI) [15]: 156
- MFI of Biotin-Tab131 [16]: 12500
- MFI of Biotin-Tab142 [17]: 23300
- MFI of Biotin-Tab142 [18]: 43100
- MFI [19]: 65
- MFI [20]: 68
- MFI of Biotin-Tab142 [21]: 43700
- MFI of Biotin-Tab131 [22]: 13000
- Max MFI [23]: 75
- FACS signal (MFI) [24]: 59
- FACS signal (MFI) [25]: 74
- FACS signal (MFI) [26]: 85
- MFI of Biotin-Tab142 [27]: 23600
Substance: hIgG1 (antibody)
